# Results: PMC9402430, “Cryo-EM structure of an active bacterial TIR–STING filament complex” (Nature, 2022)
# Key:
# [1] = biological target: T1, SfSTING (Sphingobacterium faecium TIR–STING) (Sphingobacterium faecium, UniProt A0A2T5Y4G4); test: cryo-EM structure; EMSA; details: 3x molar c-di-GMP (84 uM); STING CDN-binding pocket at dimer interface; activating ligand
# T1 construct: gene cap12; full-length TIR-STING; N-terminal 6xHis fusion, modified pET16, E. coli BL21-CodonPlus(DE3)-RIL; homodimer forming filaments
# T1 sequence (A0A2T5Y4G4 1-323): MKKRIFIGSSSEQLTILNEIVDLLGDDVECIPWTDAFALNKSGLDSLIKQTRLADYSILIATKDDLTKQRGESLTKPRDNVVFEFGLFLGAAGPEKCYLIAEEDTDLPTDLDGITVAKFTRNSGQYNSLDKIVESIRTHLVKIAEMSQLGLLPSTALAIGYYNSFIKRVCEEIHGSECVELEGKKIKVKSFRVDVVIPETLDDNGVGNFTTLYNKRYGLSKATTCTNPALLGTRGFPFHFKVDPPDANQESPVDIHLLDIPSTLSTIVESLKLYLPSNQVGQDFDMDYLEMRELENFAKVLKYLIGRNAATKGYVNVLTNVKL
# [2] = biological target: T1, SfSTING (Sphingobacterium faecium TIR–STING); test: fluorescence NADase assay; assay type: biochemical; details: 500 uM substrate; 20 uM c-di-GMP activator; 20 mM HEPES-KOH pH 7.5, 100 mM KCl
# [3] = biological target: the molecule itself; test: cryo-EM structure; SfSTING 1 mg/ml rapidly mixed with 3× molar 3′,3′-cGAMP (84 μM), a weakly activating ligand; dimers to short oligomers
# [4] = biological target: the molecule itself; test: cryo-EM structure; SfSTING 1 mg/ml rapidly mixed with 3× molar c-di-GMP (84 μM), frozen within 10 s, 4 °C; second dataset pre-incubated with 1 mM benzamide adenine dinucleotide; dimers to filament (single and antiparallel double filaments)
# [5] = biological target: the molecule itself; test: negative-stain EM; 1 μM wild-type or mutant SfSTING with 10 μM c-di-GMP, 20 mM HEPES-KOH pH 7.5, 250 mM KCl, 1 mM TCEP, 15 min on ice; dimers to filament
molecule,measurement,setting,value
Nc1nc2c(ncn2[C@@H]2O[C@@H]3COP(=O)(O)O[C@H]4[C@@H](O)[C@H](n5cnc6c(=O)[nH]c(N)nc65)O[C@@H]4COP(=O)(O)O[C@H]3[C@H]2O)c(=O)[nH]1 [c-di-GMP],cryo-EM structure; EMSA,[1],cryo-EM density map of the active SfSTING–c-di-GMP filament complex
"NC(=O)c1ccc[n+]([C@@H]2O[C@H](COP(=O)(O)OP(=O)(O)OC[C@H]3O[C@@H](n4cnc5c4ncn4ccnc54)[C@H](O)[C@@H]3O)[C@@H](O)[C@H]2O)c1 [nicotinamide 1,N^6-ethenoadenine dinucleotide]",fluorescence NADase assay,[2],WT* and E95Q* mutant SfSTING consume the ε-NAD substrate within the deadtime
"Sphingobacterium faecium TIR–STING (SfSTING), wild type (enzyme, UniProt A0A2T5Y4G4 1-323, looked up, TIR–STING antiphage effector of the S. faecium CBASS operon; also called WT; source: E. coli BL21-CodonPlus(DE3)-RIL, purified (Ni-NTA, Superdex 200 SEC)) MKKRIFIGSSSEQLTILNEIVDLLGDDVECIPWTDAFALNKSGLDSLIKQTRLADYSILIATKDDLTKQRGESLTKPRDNVVFEFGLFLGAAGPEKCYLIAEEDTDLPTDLDGITVAKFTRNSGQYNSLDKIVESIRTHLVKIAEMSQLGLLPSTALAIGYYNSFIKRVCEEIHGSECVELEGKKIKVKSFRVDVVIPETLDDNGVGNFTTLYNKRYGLSKATTCTNPALLGTRGFPFHFKVDPPDANQESPVDIHLLDIPSTLSTIVESLKLYLPSNQVGQDFDMDYLEMRELENFAKVLKYLIGRNAATKGYVNVLTNVKL",stoichiometry N,[3],4 to 6 units (dimers)
same,stoichiometry N,[4],~85 dimer copies
"SfSTING D110A (enzyme, Sphingobacterium faecium, UniProt A0A2T5Y4G4 1-323, looked up, S. faecium TIR–STING (SfSTING) with a substitution of the TIR DD-loop residue that completes the active site of the dimer mate; Mutant of m1; same vector and purification; also called intradimeric contact mutant; source: E. coli BL21-CodonPlus(DE3)-RIL, purified (Ni-NTA, Superdex 200 SEC)) MKKRIFIGSSSEQLTILNEIVDLLGDDVECIPWTDAFALNKSGLDSLIKQTRLADYSILIATKDDLTKQRGESLTKPRDNVVFEFGLFLGAAGPEKCYLIAEEDTDLPTALDGITVAKFTRNSGQYNSLDKIVESIRTHLVKIAEMSQLGLLPSTALAIGYYNSFIKRVCEEIHGSECVELEGKKIKVKSFRVDVVIPETLDDNGVGNFTTLYNKRYGLSKATTCTNPALLGTRGFPFHFKVDPPDANQESPVDIHLLDIPSTLSTIVESLKLYLPSNQVGQDFDMDYLEMRELENFAKVLKYLIGRNAATKGYVNVLTNVKL",binding result,[5],binds
"SfSTING ΔA36–K41 (TIR BB loop replaced by a glycine-serine linker, D35-GSGG-S42) (enzyme, Sphingobacterium faecium, UniProt A0A2T5Y4G4 1-323, looked up, S. faecium TIR–STING (SfSTING) in which residues A36–K41 of the TIR BB loop are replaced by GSGG (D35-GSGG-S42); Mutant of m1; also called TIR-to-TIR cross-filament contact mutant; SfSTING TIR mutant; source: E. coli BL21-CodonPlus(DE3)-RIL, purified (Ni-NTA, Superdex 200 SEC)) MKKRIFIGSSSEQLTILNEIVDLLGDDVECIPWTDGSGGSGLDSLIKQTRLADYSILIATKDDLTKQRGESLTKPRDNVVFEFGLFLGAAGPEKCYLIAEEDTDLPTDLDGITVAKFTRNSGQYNSLDKIVESIRTHLVKIAEMSQLGLLPSTALAIGYYNSFIKRVCEEIHGSECVELEGKKIKVKSFRVDVVIPETLDDNGVGNFTTLYNKRYGLSKATTCTNPALLGTRGFPFHFKVDPPDANQESPVDIHLLDIPSTLSTIVESLKLYLPSNQVGQDFDMDYLEMRELENFAKVLKYLIGRNAATKGYVNVLTNVKL",binding result,[5],binds
